Reference: patent publication US20150344570A1 (published 2015)

T1: FcγRIIb extracellular domain with C-terminal His tag (human, UniProt P31994 43-217)
T1 construct: extracellular domain; Soluble receptor expressed in FreeStyle293 cells and used as analyte in Biacore; also called FcgRIIb; 2b; not shown: His tag at the C terminus
T1 sequence (looked up): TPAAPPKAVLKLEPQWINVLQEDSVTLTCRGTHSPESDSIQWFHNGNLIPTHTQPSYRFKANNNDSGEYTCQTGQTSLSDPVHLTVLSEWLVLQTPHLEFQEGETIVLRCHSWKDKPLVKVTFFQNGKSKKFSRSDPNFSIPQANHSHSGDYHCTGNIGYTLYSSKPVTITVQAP


Key:
[1] = biological target: T2, FcγRIIIa extracellular domain with C-terminal His tag (human, UniProt P08637 17-208); assay: SPR (Biacore); He/Con for FcγRIIIa divided by He/Con for FcγRIIb
T2 construct: extracellular domain; also called FcgRIIIa; 3a; not shown: His tag at the C terminus
Procedure: (§1) The heterodimerized antibodies He Abs in which one of the H chains was introduced with an alteration were assayed for their binding activities to each activating FcγR and inhibitory FcγR according to the method described in Example 4. […] The activating FcγRs in FIGS. 26, 27, 28, and 29 are FcγRIa, FcγRIIa (R), FcγRIIa (H), and FcγRIIIa, respectively.
(§2) Analysis of interaction between objective antibody and the FcγR was carried out using Biacore T100 (GE Healthcare). HBS-EP+ (GE Healthcare) was used as the running buffer, and the measurement temperature was set to 25° C. Chips produced by immobilizing the antigen peptide by the amine coupling method to a Series S Sencor Chip CM5 (GE Healthcare), or alternatively, chips produced by allowing preliminarily biotinylated antigen peptides to interact with and immobilize onto a Series S Sensor Chip SA (certified) (GE Healthcare) were used. Antibodies of interest were captured onto an antigen peptide-immobilized chip, and allowed to interact to each FcγR diluted with running buffer. To regenerate and repeatedly use the chip, the antibodies captured on the chip were washed off by reacting 10 mM glycine-HCl, pH 1.5.

[2] = biological target: T1, FcγRIIb extracellular domain with …; assay: SPR (Biacore), antibody captured on antigen-peptide chip, FcγR as analyte; relative binding amount
Procedure: as §1, §2

[3] = biological target: T2, FcγRIIIa extracellular domain with …; assay: as above
Procedure: as §1, §2

FcγRIIIa = biological target: T3, FcγRIIIa (human, UniProt P08637 17-208); assay: SPR (Biacore), antibody captured on antigen-peptide chip, FcγR as analyte; binding of He Ab / binding of HeCon Ab GpH7-A5/GpH7-B3/GpL16-k0 x 100
T3 construct: extracellular domain; also called 3a; FcgRIIIa
T3 sequence (P08637 17-208): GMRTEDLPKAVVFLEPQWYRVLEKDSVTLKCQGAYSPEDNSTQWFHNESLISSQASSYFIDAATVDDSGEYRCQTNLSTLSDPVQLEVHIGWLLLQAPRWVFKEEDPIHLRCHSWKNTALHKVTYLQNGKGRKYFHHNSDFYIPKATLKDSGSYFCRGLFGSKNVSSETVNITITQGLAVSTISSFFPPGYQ

T2 sequence (P08637 17-208): as above

| Binder | He_3a/2b (IIIa/IIb) [1] [ratio] | He/Con_2b (IIb binding) [2] | He/Con_3a (IIIa binding) [3] | He/Con_3a (FcγRIIIa) |
| --- | --- | --- | --- | --- |
| GpH7-A5/GpH7-B3 variant I336_02A/GpL16-k0 (antibody, human IgG1, kappa, Heterodimerized anti-glypican-3 IgG1 (He Ab); The mutation is in the GpH7-B3 chain only; also called He Ab with I336A in GpH7-B3) heavy 1: not shown heavy 2: not shown light: DIVMTQSPLSLPVTPGEPASISCQASESLVHSNRNTYLHWYLQKPGQSPQLLIYKVSNRFSGVPDRFSGSGSGTDFTLKISRVEAEDVGVYYCSQNTHVPPTFGQGTKVEIERTVAAPSVFIFPPSDEQLKSGTASVVCLLNNFYPREAKVQWKVDNALQSGNSQESVTEQDSKDSTYSLSSTLTLSKADYEKHKVYACEVTHQGLSSPVTKSFNRGEC | 1.31 | 84.9 relative, GpH7-A5/GpH7-B3/GpL16-k0 = 100 | 111 relative, GpH7-A5/GpH7-B3/GpL16-k0 = 100 |  |
| GpH7-A5/GpH7-B3 variant K334_10E/GpL16-k0 (antibody, human IgG1, kappa, Heterodimerized anti-glypican-3 IgG1 (He Ab); The mutation is in the GpH7-B3 chain only; also called He Ab with K334E in GpH7-B3) heavy 1: not shown heavy 2: not shown light: DIVMTQSPLSLPVTPGEPASISCQASESLVHSNRNTYLHWYLQKPGQSPQLLIYKVSNRFSGVPDRFSGSGSGTDFTLKISRVEAEDVGVYYCSQNTHVPPTFGQGTKVEIERTVAAPSVFIFPPSDEQLKSGTASVVCLLNNFYPREAKVQWKVDNALQSGNSQESVTEQDSKDSTYSLSSTLTLSKADYEKHKVYACEVTHQGLSSPVTKSFNRGEC | 1.58 | 114 relative, GpH7-A5/GpH7-B3/GpL16-k0 = 100 | 181 relative, GpH7-A5/GpH7-B3/GpL16-k0 = 100 |  |
| GpH7-A5/GpH7-B3 variant I336_19Q/GpL16-k0 (antibody, human IgG1, kappa, Heterodimerized anti-glypican-3 IgG1 (He Ab); The mutation is in the GpH7-B3 chain only; also called He Ab with I336Q in GpH7-B3) heavy 1: not shown heavy 2: not shown light: DIVMTQSPLSLPVTPGEPASISCQASESLVHSNRNTYLHWYLQKPGQSPQLLIYKVSNRFSGVPDRFSGSGSGTDFTLKISRVEAEDVGVYYCSQNTHVPPTFGQGTKVEIERTVAAPSVFIFPPSDEQLKSGTASVVCLLNNFYPREAKVQWKVDNALQSGNSQESVTEQDSKDSTYSLSSTLTLSKADYEKHKVYACEVTHQGLSSPVTKSFNRGEC | 1.59 | 58.2 relative, GpH7-A5/GpH7-B3/GpL16-k0 = 100 | 92.5 relative, GpH7-A5/GpH7-B3/GpL16-k0 = 100 |  |
| GpH7-A5/GpH7-B3 variant T335_09D/GpL16-k0 (He Ab) (antibody, human IgG1, kappa, Heterodimerized anti-glypican-3 antibody; the alteration stands only in the GpH7-B3 chain) heavy 1: not shown heavy 2: not shown light: DIVMTQSPLSLPVTPGEPASISCQASESLVHSNRNTYLHWYLQKPGQSPQLLIYKVSNRFSGVPDRFSGSGSGTDFTLKISRVEAEDVGVYYCSQNTHVPPTFGQGTKVEIERTVAAPSVFIFPPSDEQLKSGTASVVCLLNNFYPREAKVQWKVDNALQSGNSQESVTEQDSKDSTYSLSSTLTLSKADYEKHKVYACEVTHQGLSSPVTKSFNRGEC |  |  |  | 108 relative to control = 100 |
| GpH7-A5/GpH7-B3 variant I336_14T/GpL16-k0 (antibody, human IgG1, kappa, Heterodimerized anti-glypican-3 IgG1 (He Ab); The mutation is in the GpH7-B3 chain only; also called He Ab with I336T in GpH7-B3) heavy 1: not shown heavy 2: not shown light: DIVMTQSPLSLPVTPGEPASISCQASESLVHSNRNTYLHWYLQKPGQSPQLLIYKVSNRFSGVPDRFSGSGSGTDFTLKISRVEAEDVGVYYCSQNTHVPPTFGQGTKVEIERTVAAPSVFIFPPSDEQLKSGTASVVCLLNNFYPREAKVQWKVDNALQSGNSQESVTEQDSKDSTYSLSSTLTLSKADYEKHKVYACEVTHQGLSSPVTKSFNRGEC | 1.21 | 89.5 relative, GpH7-A5/GpH7-B3/GpL16-k0 = 100 | 108 relative, GpH7-A5/GpH7-B3/GpL16-k0 = 100 |  |
| GpH7-A5/GpH7-B3 variant Y300_08L/GpL16-k0 (He Ab) (antibody, human IgG1, kappa, Heterodimerized anti-glypican-3 antibody; the alteration stands only in the GpH7-B3 chain) heavy 1: not shown heavy 2: not shown light: DIVMTQSPLSLPVTPGEPASISCQASESLVHSNRNTYLHWYLQKPGQSPQLLIYKVSNRFSGVPDRFSGSGSGTDFTLKISRVEAEDVGVYYCSQNTHVPPTFGQGTKVEIERTVAAPSVFIFPPSDEQLKSGTASVVCLLNNFYPREAKVQWKVDNALQSGNSQESVTEQDSKDSTYSLSSTLTLSKADYEKHKVYACEVTHQGLSSPVTKSFNRGEC |  |  |  | 105 relative to control = 100 |
| GpH7-A5/GpH7-B3 variant K334_14T/GpL16-k0 (antibody, human IgG1, kappa, Heterodimerized anti-glypican-3 IgG1 (He Ab); The mutation is in the GpH7-B3 chain only; also called He Ab with K334T in GpH7-B3) heavy 1: not shown heavy 2: not shown light: DIVMTQSPLSLPVTPGEPASISCQASESLVHSNRNTYLHWYLQKPGQSPQLLIYKVSNRFSGVPDRFSGSGSGTDFTLKISRVEAEDVGVYYCSQNTHVPPTFGQGTKVEIERTVAAPSVFIFPPSDEQLKSGTASVVCLLNNFYPREAKVQWKVDNALQSGNSQESVTEQDSKDSTYSLSSTLTLSKADYEKHKVYACEVTHQGLSSPVTKSFNRGEC | 1.23 | 115 relative, GpH7-A5/GpH7-B3/GpL16-k0 = 100 | 141 relative, GpH7-A5/GpH7-B3/GpL16-k0 = 100 |  |
| GpH7-A5/GpH7-B3 variant I336_13S/GpL16-k0 (antibody, human IgG1, kappa, Heterodimerized anti-glypican-3 IgG1 (He Ab); The mutation is in the GpH7-B3 chain only; also called He Ab with I336S in GpH7-B3) heavy 1: not shown heavy 2: not shown light: DIVMTQSPLSLPVTPGEPASISCQASESLVHSNRNTYLHWYLQKPGQSPQLLIYKVSNRFSGVPDRFSGSGSGTDFTLKISRVEAEDVGVYYCSQNTHVPPTFGQGTKVEIERTVAAPSVFIFPPSDEQLKSGTASVVCLLNNFYPREAKVQWKVDNALQSGNSQESVTEQDSKDSTYSLSSTLTLSKADYEKHKVYACEVTHQGLSSPVTKSFNRGEC | 1.21 | 83.7 relative, GpH7-A5/GpH7-B3/GpL16-k0 = 100 | 102 relative, GpH7-A5/GpH7-B3/GpL16-k0 = 100 |  |
| GpH7-A5/GpH7-B3 variant Y296_20W/GpL16-k0 (He Ab) (antibody, human IgG1, kappa, Heterodimerized anti-glypican-3 antibody; the alteration stands only in the GpH7-B3 chain) heavy 1: not shown heavy 2: not shown light: DIVMTQSPLSLPVTPGEPASISCQASESLVHSNRNTYLHWYLQKPGQSPQLLIYKVSNRFSGVPDRFSGSGSGTDFTLKISRVEAEDVGVYYCSQNTHVPPTFGQGTKVEIERTVAAPSVFIFPPSDEQLKSGTASVVCLLNNFYPREAKVQWKVDNALQSGNSQESVTEQDSKDSTYSLSSTLTLSKADYEKHKVYACEVTHQGLSSPVTKSFNRGEC |  |  |  | 135 relative to control = 100 |
| GpH7-A5/GpH7-B3 variant I336_15Y/GpL16-k0 (antibody, human IgG1, kappa, Heterodimerized anti-glypican-3 IgG1 (He Ab); The mutation is in the GpH7-B3 chain only; also called He Ab with I336Y in GpH7-B3) heavy 1: not shown heavy 2: not shown light: DIVMTQSPLSLPVTPGEPASISCQASESLVHSNRNTYLHWYLQKPGQSPQLLIYKVSNRFSGVPDRFSGSGSGTDFTLKISRVEAEDVGVYYCSQNTHVPPTFGQGTKVEIERTVAAPSVFIFPPSDEQLKSGTASVVCLLNNFYPREAKVQWKVDNALQSGNSQESVTEQDSKDSTYSLSSTLTLSKADYEKHKVYACEVTHQGLSSPVTKSFNRGEC | 1.28 | 68.2 relative, GpH7-A5/GpH7-B3/GpL16-k0 = 100 | 87.3 relative, GpH7-A5/GpH7-B3/GpL16-k0 = 100 |  |
| GpH7-A5/GpH7-B3 variant I336_10E/GpL16-k0 (antibody, human IgG1, kappa, Heterodimerized anti-glypican-3 IgG1 (He Ab); The mutation is in the GpH7-B3 chain only; also called He Ab with I336E in GpH7-B3) heavy 1: not shown heavy 2: not shown light: DIVMTQSPLSLPVTPGEPASISCQASESLVHSNRNTYLHWYLQKPGQSPQLLIYKVSNRFSGVPDRFSGSGSGTDFTLKISRVEAEDVGVYYCSQNTHVPPTFGQGTKVEIERTVAAPSVFIFPPSDEQLKSGTASVVCLLNNFYPREAKVQWKVDNALQSGNSQESVTEQDSKDSTYSLSSTLTLSKADYEKHKVYACEVTHQGLSSPVTKSFNRGEC | 1.33 | 89.8 relative, GpH7-A5/GpH7-B3/GpL16-k0 = 100 | 119 relative, GpH7-A5/GpH7-B3/GpL16-k0 = 100 |  |
| GpH7-A5/GpH7-B3 variant K334_13S/GpL16-k0 (antibody, human IgG1, kappa, Heterodimerized anti-glypican-3 IgG1 (He Ab); The mutation is in the GpH7-B3 chain only; also called He Ab with K334S in GpH7-B3) heavy 1: not shown heavy 2: not shown light: DIVMTQSPLSLPVTPGEPASISCQASESLVHSNRNTYLHWYLQKPGQSPQLLIYKVSNRFSGVPDRFSGSGSGTDFTLKISRVEAEDVGVYYCSQNTHVPPTFGQGTKVEIERTVAAPSVFIFPPSDEQLKSGTASVVCLLNNFYPREAKVQWKVDNALQSGNSQESVTEQDSKDSTYSLSSTLTLSKADYEKHKVYACEVTHQGLSSPVTKSFNRGEC | 1.31 | 111 relative, GpH7-A5/GpH7-B3/GpL16-k0 = 100 | 145 relative, GpH7-A5/GpH7-B3/GpL16-k0 = 100 |  |
| GpH7-A5/GpH7-B3 variant I336_03V/GpL16-k0 (antibody, human IgG1, kappa, Heterodimerized anti-glypican-3 IgG1 (He Ab); The mutation is in the GpH7-B3 chain only; also called He Ab with I336V in GpH7-B3) heavy 1: not shown heavy 2: not shown light: DIVMTQSPLSLPVTPGEPASISCQASESLVHSNRNTYLHWYLQKPGQSPQLLIYKVSNRFSGVPDRFSGSGSGTDFTLKISRVEAEDVGVYYCSQNTHVPPTFGQGTKVEIERTVAAPSVFIFPPSDEQLKSGTASVVCLLNNFYPREAKVQWKVDNALQSGNSQESVTEQDSKDSTYSLSSTLTLSKADYEKHKVYACEVTHQGLSSPVTKSFNRGEC | 1.24 | 90.3 relative, GpH7-A5/GpH7-B3/GpL16-k0 = 100 | 112 relative, GpH7-A5/GpH7-B3/GpL16-k0 = 100 |  |
